Experimental findings from paper PMC6299093, “BRCA2 controls DNA:RNA hybrid level at DSBs by mediating RNase H2 recruitment” are described below.

The target in series [1] is T1, BRCA1 (Homo sapiens, UniProt P38398 1-1863). The experiment in a line: EMSA; 1 mM EDTA; 10 nM substrate; 25 mM Tris-HCl pH 7.5, 90 mM KCl, 1 mM EDTA, 1 mM DTT, 0.1 mg/ml BSA, RNaseOUT; 37 C 30 min; 10 nM substrate (competition: 1 nM, 10 + 10 min); 6% native PAGE at 4 C. Conditions: protein: recombinant; tags: C-terminal 10xHis; N-terminal 2xMBP cleaved off with PreScission; blunt. Background: Mobility shift assays separate free from complexed probe on a gel.

Series [2] concerns the target T2, BRCA1;BARD1 (Homo sapiens;Homo sapiens, UniProt P38398;Q99728 1-1863;1-777, |). The experiment in a line: EMSA; 1 mM EDTA; 10 nM substrate; resistant to increasing salt (Supplementary Fig. 5a); 25 mM Tris-HCl pH 7.5, 90 mM KCl, 1 mM EDTA, 1 mM DTT, 0.1 mg/ml BSA, RNaseOUT; 37 C 30 min; 10 nM substrate (competition: 1 nM, 10 + 10 min); 6% native PAGE at 4 C. Conditions: protein: recombinant;recombinant; tags: C-terminal 10xHis; N-terminal 2xMBP cleaved off with PreScission;; copies: 1;1; blunt.

The target of series [3] is T1, BRCA1. Briefly: EMSA; 1 mM EDTA; 10 nM substrate; affinity comparable to dsDNA; 25 mM Tris-HCl pH 7.5, 90 mM KCl, 1 mM EDTA, 1 mM DTT, 0.1 mg/ml BSA, RNaseOUT; 37 C 30 min; 10 nM substrate (competition: 1 nM, 10 + 10 min); 6% native PAGE at 4 C. Conditions: protein: recombinant; tags: C-terminal 10xHis; N-terminal 2xMBP cleaved off with PreScission; blunt.
The target in series [4] is T2, BRCA1;BARD1. The experiment in a line: EMSA; 1 mM EDTA; 10 nM substrate; affinity comparable to dsDNA; resistant to increasing salt (Supplementary Fig. 5a); 25 mM Tris-HCl pH 7.5, 90 mM KCl, 1 mM EDTA, 1 mM DTT, 0.1 mg/ml BSA, RNaseOUT; 37 C 30 min; 10 nM substrate (competition: 1 nM, 10 + 10 min); 6% native PAGE at 4 C. Conditions: protein: recombinant;recombinant; tags: C-terminal 10xHis; N-terminal 2xMBP cleaved off with PreScission;; copies: 1;1; blunt.

B1: X12-3/X12-4C dsDNA 50 bp (dsDNA)
DNA 1: GACGTCATAGACGATTACATTGCTAGGACATGCTGTCTAGAGACTATCGC
DNA 2: GCGATAGTCTCTAGACAGCATGTCCTAGCAATGTAATCGTCTATGACGTC
Turning to B1, the binding result in series [1] and in series [2] was “binds” each time.

B2: X12-3 DNA/X12-4C RNA hybrid 50 bp (DNA:RNA)
DNA: B1 DNA 1
RNA: GCGAUAGUCUCUAGACAGCAUGUCCUAGCAAUGUAAUCGUCUAUGACGUC
modifications: second strand RNA
As for B2, the binding result in series [3] and in series [4] was “binds” throughout.
